Laboratory results: US20210147504A1 (Bayer, published 2021)
Several values for one entry are separate records, joined by “and”; a condition that tells them apart may be missing. Equal values may be shown once. Blank lines part the entries; values can stand above or below the binder they belong to.

How the values were obtained:
Test in all cases: cell-based or functional assay
human NPRA [1] = molecular target: T1, human NPRA (human, UniProt P16066 33-1061)
T1 sequence (looked up): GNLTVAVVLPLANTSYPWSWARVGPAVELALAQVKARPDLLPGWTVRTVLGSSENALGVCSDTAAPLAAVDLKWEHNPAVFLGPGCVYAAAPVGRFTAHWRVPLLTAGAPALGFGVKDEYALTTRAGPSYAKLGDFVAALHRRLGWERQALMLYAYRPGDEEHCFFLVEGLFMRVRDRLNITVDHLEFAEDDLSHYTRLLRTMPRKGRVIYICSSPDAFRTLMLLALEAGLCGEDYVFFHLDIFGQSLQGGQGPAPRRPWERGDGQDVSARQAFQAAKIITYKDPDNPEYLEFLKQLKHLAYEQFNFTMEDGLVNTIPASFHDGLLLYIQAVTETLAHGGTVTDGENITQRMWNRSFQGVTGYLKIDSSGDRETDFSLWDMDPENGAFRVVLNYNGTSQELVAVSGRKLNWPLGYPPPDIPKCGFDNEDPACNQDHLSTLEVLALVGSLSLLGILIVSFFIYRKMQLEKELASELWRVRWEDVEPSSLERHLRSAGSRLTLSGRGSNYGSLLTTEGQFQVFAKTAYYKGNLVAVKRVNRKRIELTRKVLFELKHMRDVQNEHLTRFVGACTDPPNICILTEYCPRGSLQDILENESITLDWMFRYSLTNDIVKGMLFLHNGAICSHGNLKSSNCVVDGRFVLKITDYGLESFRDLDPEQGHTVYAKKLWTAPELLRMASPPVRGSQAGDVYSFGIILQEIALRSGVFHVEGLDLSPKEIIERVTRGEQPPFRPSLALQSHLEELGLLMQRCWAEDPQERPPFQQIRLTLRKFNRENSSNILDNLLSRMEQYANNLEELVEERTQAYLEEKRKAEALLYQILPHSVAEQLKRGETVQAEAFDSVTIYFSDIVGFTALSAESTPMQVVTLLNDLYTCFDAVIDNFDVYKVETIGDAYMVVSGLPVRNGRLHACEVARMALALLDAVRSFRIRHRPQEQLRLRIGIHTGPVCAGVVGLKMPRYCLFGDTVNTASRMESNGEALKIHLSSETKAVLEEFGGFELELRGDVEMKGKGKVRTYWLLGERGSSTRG

rat ANP receptor (NPR-A) = molecular target: T2, rat ANP receptor (NPR-A) (rat, UniProt P18910 29-1057)
T2 sequence (looked up): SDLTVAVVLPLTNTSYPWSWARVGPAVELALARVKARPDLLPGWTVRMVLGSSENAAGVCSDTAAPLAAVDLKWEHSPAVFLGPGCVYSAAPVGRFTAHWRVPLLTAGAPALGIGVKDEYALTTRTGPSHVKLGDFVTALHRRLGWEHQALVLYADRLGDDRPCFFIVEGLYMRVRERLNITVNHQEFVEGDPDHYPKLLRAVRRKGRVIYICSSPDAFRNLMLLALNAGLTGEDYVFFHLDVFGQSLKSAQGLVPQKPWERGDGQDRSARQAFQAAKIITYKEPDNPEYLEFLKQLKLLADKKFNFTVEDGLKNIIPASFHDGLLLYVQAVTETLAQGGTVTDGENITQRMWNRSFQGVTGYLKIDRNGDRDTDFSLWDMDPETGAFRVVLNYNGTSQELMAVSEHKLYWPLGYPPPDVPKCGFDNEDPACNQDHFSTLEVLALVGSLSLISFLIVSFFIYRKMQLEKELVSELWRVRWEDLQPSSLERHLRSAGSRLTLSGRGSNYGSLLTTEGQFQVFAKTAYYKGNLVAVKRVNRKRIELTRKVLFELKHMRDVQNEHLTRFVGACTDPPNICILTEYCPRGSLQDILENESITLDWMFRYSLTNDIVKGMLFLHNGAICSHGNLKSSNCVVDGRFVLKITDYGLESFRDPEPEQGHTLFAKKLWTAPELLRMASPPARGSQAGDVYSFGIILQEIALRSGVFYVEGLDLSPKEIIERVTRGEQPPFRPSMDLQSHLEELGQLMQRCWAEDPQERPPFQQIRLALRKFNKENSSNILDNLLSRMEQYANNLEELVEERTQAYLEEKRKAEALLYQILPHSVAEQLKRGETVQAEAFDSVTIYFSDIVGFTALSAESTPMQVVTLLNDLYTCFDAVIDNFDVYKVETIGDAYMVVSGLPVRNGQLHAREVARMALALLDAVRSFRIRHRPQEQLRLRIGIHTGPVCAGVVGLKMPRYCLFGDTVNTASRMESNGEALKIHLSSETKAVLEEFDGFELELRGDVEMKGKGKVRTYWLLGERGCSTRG

human NPRA [2] = molecular target: T3, human NPRA (human, UniProt P16066 33-1061); remark: listed apart in the source
T3 sequence (looked up): T1 sequence (looked up)

B1: TPP-10361 (antibody, human IgG1, lambda)
heavy: not shown
light: QSVLTQPPSVSGAPGQRVTISCTGSSSNIGAGYDVHWYQQLPGTAPKLLIYGSGSGSGSGSGSPDGGSGGSLRRSSCFGGRMDRIGAQSGLGCNSFRYGSYGSGGSGSGSGNRPSGVPDRFSGSKSGTSASLAITGLQAEDEADYYCQSYDSSLSGVVFGGGTKLTVLGQPKAAPSVTLFPPSSEELQANKATLVCLISDFYPGAVTVAWKADSSPVKAGVETTTPSKQSNNKYAASSYLSLTPEQWKSHRSYSCQVTHEGSTVEKTVAPTECS
activity rcs (human NPRA [1]): 20% | average rel logEC50 (human NPRA [1]): -0.1 log vs TPP-5661 | rel. activity rcs (human NPRA [1]): -0.1 log vs TPP-5661 | rel. logEC50 pcs 5 (human NPRA [1]): -0.1 log vs TPP-5661

B3: TPP-10274 (antibody)
heavy: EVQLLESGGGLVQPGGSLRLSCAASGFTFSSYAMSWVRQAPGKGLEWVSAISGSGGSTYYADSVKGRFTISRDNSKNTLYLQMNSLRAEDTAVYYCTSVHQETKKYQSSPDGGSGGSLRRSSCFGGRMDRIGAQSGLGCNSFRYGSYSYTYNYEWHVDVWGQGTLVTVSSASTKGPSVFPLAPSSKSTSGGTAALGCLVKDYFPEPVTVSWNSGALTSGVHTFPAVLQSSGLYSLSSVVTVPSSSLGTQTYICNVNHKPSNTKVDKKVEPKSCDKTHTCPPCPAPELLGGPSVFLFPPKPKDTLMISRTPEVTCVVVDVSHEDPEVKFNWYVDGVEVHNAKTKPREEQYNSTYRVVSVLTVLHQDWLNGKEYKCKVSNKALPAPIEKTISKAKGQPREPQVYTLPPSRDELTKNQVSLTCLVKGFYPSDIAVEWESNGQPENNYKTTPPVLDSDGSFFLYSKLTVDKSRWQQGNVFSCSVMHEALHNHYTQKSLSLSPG
light: QSVLTQPPSVSGAPGQRVTISCTGSSSNIGAGYDVHWYQQLPGTAPKLLIYGNSNRPSGVPDRFSGSKSGTSASLAITGLQAEDEADYYCQSYDSSLSGVVFGGGTKLTVLGQPKAAPSVTLFPPSSEELQANKATLVCLISDFYPGAVTVAWKADSSPVKAGVETTTPSKQSNNKYAASSYLSLTPEQWKSHRSYSCQVTHEGSTVEKTVAPTECS
activity rcs (human NPRA [2]): 71% | average rel logEC50 (human NPRA [2]): -0.1 log vs TPP-5661 | rel. logEC50 pcs 2 (human NPRA [2]): -0.3 log vs TPP-5661 | rel. logEC50 pcs 3 (human NPRA [2]): -0.2 log vs TPP-5661 | rel. logEC50 pcs 7 (human NPRA [2]): 0 log vs TPP-5661

B4: TPP-10765 (antibody, human IgG1, lambda)
heavy: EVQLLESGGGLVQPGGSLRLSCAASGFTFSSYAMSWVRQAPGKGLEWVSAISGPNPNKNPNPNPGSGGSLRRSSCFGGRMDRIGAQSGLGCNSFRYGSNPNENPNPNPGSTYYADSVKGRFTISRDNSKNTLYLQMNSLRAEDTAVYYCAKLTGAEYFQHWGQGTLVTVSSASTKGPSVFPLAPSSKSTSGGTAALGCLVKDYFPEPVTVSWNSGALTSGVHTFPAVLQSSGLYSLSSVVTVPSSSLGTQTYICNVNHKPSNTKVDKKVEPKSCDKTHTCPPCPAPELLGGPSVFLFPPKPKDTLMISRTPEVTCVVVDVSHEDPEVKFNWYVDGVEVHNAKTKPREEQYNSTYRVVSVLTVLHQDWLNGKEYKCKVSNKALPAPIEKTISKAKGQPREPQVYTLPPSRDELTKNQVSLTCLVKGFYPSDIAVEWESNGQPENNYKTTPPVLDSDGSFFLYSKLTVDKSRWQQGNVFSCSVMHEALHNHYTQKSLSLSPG
light: B3 light
activity rcs (human NPRA [2]): 72% | average rel logEC50 (human NPRA [2]): -0.4 log vs TPP-5661 | rel. activity rcs (human NPRA [2]): -0.9 log vs TPP-5661 | rel. logEC50 pcs 5 (human NPRA [2]): -0.9 log vs TPP-5661 | rel. logEC50 pcs 6 (human NPRA [2]): -0.4 log vs TPP-5661 | rel. logEC50 pcs 7 (human NPRA [2]): 0.2 log vs TPP-5661

B6: TPP-10282 (antibody, human IgG1, lambda)
heavy: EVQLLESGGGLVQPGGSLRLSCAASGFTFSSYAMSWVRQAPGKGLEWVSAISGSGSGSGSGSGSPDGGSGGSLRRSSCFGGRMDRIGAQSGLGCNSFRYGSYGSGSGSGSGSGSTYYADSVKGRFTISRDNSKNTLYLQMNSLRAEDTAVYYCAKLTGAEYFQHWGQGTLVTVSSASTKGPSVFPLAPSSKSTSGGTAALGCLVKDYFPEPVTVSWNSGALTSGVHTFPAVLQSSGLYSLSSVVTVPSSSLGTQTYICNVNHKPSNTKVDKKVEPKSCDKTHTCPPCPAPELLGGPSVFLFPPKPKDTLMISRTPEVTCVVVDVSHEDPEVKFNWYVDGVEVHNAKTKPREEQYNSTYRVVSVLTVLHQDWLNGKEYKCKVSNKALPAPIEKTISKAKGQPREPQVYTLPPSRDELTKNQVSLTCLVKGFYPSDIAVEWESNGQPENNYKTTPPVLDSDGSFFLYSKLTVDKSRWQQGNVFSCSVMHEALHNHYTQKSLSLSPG
light: B3 light
activity rcs (human NPRA [2]): 30% | average rel logEC50 (human NPRA [2]): 0.1 log vs TPP-5661 | rel. activity rcs (human NPRA [2]): 0.3 log vs TPP-5661 | rel. logEC50 pcs 1 (human NPRA [2]): 0.3 log vs TPP-5661 | rel. logEC50 pcs 2 (human NPRA [2]): -0.2 log vs TPP-5661 | rel. logEC50 pcs 4 (human NPRA [2]): 0.1 log vs TPP-5661 | rel. logEC50 pcs 5 (human NPRA [2]): 0.2 log vs TPP-5661

B8: TPP-10283 (antibody, human IgG1, lambda)
heavy: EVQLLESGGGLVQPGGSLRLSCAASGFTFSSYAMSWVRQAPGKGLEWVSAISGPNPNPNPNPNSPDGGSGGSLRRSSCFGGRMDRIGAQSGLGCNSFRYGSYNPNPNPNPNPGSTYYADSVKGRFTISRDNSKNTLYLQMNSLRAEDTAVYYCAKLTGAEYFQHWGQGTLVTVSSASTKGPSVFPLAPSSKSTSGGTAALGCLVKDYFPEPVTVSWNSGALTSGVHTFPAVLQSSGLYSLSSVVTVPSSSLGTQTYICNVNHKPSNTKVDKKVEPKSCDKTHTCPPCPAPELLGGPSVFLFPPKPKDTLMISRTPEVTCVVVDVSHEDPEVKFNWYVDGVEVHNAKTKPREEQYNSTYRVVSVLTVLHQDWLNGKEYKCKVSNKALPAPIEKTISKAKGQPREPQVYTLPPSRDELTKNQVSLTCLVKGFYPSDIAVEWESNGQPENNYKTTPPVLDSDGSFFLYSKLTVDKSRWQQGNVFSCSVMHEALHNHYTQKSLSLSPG
light: B3 light
activity rcs (human NPRA [2]): 83% | average rel logEC50 (human NPRA [2]): -0.8 log vs TPP-5661 | rel. activity rcs (human NPRA [2]): -0.8 log vs TPP-5661 | rel. logEC50 pcs 5 (human NPRA [2]): -0.8 log vs TPP-5661

B10: TPP-5661 (antibody)
heavy: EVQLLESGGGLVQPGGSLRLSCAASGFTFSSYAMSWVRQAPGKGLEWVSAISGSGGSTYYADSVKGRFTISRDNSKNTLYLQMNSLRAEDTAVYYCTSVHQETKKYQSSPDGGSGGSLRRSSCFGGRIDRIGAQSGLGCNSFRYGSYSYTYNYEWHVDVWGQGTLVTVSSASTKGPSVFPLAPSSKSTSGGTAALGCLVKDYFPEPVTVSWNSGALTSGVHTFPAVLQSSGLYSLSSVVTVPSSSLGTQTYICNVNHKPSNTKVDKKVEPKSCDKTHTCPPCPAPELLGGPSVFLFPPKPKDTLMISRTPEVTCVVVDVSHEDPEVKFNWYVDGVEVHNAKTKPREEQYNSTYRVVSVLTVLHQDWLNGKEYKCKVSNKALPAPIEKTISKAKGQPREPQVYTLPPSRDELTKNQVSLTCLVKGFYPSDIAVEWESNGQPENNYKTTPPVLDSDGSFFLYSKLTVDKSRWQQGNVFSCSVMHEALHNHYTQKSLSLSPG
light: B3 light
activity rcs (human NPRA [1]): 36% | average rel logEC50 (human NPRA [1]): 0 log vs TPP-5661 | rel. activity rcs (human NPRA [1]): 0 log vs TPP-5661 | rel. logEC50* pcs (human NPRA [1]): 0 log vs TPP-5661 | rel. logEC50 ics (human NPRA [1]): 0 log vs TPP-5661 | rel. logEC50 pcs 1 (human NPRA [1]): 0 log vs TPP-5661 | rel. logEC50 pcs 2 (human NPRA [1]): 0 log vs TPP-5661 | rel. logEC50 pcs 3 (human NPRA [1]): 0 log vs TPP-5661 | rel. logEC50 pcs 4 (human NPRA [1]): 0 log vs TPP-5661 | rel. logEC50 pcs 5 (human NPRA [1]): 0 log vs TPP-5661 | rel. logEC50 pcs 6 (human NPRA [1]): 0 log vs TPP-5661 | rel. logEC50 pcs 7 (human NPRA [1]): 0 log vs TPP-5661 | rel. logEC50 pcs 8 (human NPRA [1]): 0 log vs TPP-5661 | rel. logEC50 pcs 9 (human NPRA [1]): 0 log vs TPP-5661

B11: TPP-10294 (antibody, human IgG1, lambda)
heavy: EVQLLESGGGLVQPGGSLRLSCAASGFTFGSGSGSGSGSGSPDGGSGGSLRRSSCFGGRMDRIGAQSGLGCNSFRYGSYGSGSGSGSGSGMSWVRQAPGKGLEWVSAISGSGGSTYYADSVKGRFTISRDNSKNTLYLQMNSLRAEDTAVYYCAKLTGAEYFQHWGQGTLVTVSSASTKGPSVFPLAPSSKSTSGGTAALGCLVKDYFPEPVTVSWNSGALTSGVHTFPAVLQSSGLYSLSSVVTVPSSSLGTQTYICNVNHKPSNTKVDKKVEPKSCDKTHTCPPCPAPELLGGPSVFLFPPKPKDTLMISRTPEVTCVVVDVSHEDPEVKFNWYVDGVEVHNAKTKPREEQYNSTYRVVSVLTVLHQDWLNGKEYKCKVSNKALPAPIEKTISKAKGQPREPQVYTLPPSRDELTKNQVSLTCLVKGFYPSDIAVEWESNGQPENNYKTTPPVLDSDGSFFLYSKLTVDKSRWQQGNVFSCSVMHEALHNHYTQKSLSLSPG
light: B3 light
activity rcs (human NPRA [2]): 41% | average rel logEC50 (human NPRA [2]): -0.3 log vs TPP-5661 | rel. logEC50* pcs (human NPRA [2]): -0.5 log vs TPP-5661 and -0.6 log vs TPP-5661 and -0.4 log vs TPP-5661 | rel. logEC50 pcs 4 (human NPRA [2]): -0.2 log vs TPP-5661 | rel. logEC50 pcs 7 (human NPRA [2]): 0 log vs TPP-5661

B13: TPP-9902 (antibody)
heavy: not shown
light: B3 light
EC50, fluorescence signal of rat NPR-A cGMP reporter CHO cell line (GCaMP6/CNGA2) (rat ANP receptor (NPR-A)): 2300 nM | EC50 on rNPRA reporter cells (rat ANP receptor (NPR-A)): > 1000 nM

B14: TPP-10290 (antibody)
heavy: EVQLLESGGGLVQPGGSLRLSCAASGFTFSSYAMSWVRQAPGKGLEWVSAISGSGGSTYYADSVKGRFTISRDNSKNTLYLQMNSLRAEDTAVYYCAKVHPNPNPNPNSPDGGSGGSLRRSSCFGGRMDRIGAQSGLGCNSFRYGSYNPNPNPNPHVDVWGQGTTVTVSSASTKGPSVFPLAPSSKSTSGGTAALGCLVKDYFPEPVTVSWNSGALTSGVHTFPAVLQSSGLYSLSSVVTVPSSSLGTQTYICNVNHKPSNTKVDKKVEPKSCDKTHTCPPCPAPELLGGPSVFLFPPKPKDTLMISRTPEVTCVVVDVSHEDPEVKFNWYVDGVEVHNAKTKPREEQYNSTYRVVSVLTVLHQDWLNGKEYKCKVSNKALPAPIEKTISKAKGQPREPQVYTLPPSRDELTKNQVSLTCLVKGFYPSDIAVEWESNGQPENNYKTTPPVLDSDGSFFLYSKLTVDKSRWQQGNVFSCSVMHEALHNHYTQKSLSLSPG
light: B3 light
activity rcs (human NPRA [1]): 84% | average rel logEC50 (human NPRA [1]): -0.5 log vs TPP-5661 | rel. logEC50 pcs 2 (human NPRA [1]): -0.8 log vs TPP-5661 | rel. logEC50 pcs 3 (human NPRA [1]): -0.1 log vs TPP-5661

B17: TPP-10355 (antibody, human IgG1, lambda)
heavy: not shown
light: QSVLTQPPSVSGAPGQRVTISCTGSSSNIGAGYDVHWYQQLPGTAPKLLIYGNSNRPSGVPDRFSGSKSGTSASLAITGLQAEDEADYYCAAWNPNPNPNPNPNGGSGGSLRRSSCFGGRMDRIGAQSGLGCNSFRYGSNPNPNPNPNPNVFGSGTKVTVLGQPKAAPSVTLFPPSSEELQANKATLVCLISDFYPGAVTVAWKADSSPVKAGVETTTPSKQSNNKYAASSYLSLTPEQWKSHRSYSCQVTHEGSTVEKTVAPTECS
activity rcs (human NPRA [1]): 94% | average rel logEC50 (human NPRA [1]): -0.2 log vs TPP-5661 | rel. activity rcs (human NPRA [1]): 0.1 log vs TPP-5661 | rel. logEC50 pcs 2 (human NPRA [1]): -0.6 log vs TPP-5661 | rel. logEC50 pcs 3 (human NPRA [1]): 0.2 log vs TPP-5661 | rel. logEC50 pcs 4 (human NPRA [1]): -0.3 log vs TPP-5661

Other lines, results leading:

EC50, fluorescence signal of rat NPR-A cGMP reporter CHO cell line (GCaMP6/CNGA2) (rat ANP receptor (NPR-A)): 1200 nM | EC50 on rNPRA reporter cells (rat ANP receptor (NPR-A)): > 1000 nM
B2: TPP-11156 (antibody, human IgG1, lambda)
heavy: not shown
light: B3 light

average rel logEC50 (human NPRA [2]): -0.7 log vs TPP-5661 | rel. logEC50* pcs (human NPRA [2]): -0.6 log vs TPP-5661 and -0.8 log vs TPP-5661
B5: TPP-13061 (antibody, human IgG1, lambda)
heavy: not shown
light: B3 light

activity rcs (human NPRA [2]): 67% | average rel logEC50 (human NPRA [2]): -0.6 log vs TPP-5661 | rel. logEC50 pcs 5 (human NPRA [2]): -0.4 log vs TPP-5661 | rel. logEC50 pcs 6 (human NPRA [2]): -0.8 log vs TPP-5661
B7: TPP-10845 (antibody, human IgG1, lambda)
heavy: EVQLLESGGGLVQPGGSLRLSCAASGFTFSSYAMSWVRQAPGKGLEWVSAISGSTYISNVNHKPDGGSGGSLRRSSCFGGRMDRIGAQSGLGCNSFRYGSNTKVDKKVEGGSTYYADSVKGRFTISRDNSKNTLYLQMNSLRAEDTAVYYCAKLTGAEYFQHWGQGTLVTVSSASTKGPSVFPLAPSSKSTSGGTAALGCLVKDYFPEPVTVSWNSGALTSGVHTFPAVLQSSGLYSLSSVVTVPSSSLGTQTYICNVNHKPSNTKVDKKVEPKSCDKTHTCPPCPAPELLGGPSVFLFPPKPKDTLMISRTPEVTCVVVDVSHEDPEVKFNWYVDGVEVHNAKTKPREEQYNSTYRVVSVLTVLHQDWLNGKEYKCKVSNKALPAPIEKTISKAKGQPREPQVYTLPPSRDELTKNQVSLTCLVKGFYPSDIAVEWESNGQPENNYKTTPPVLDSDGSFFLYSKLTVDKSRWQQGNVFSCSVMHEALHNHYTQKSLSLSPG
light: B3 light

average rel logEC50 (human NPRA [1]): -0.3 log vs TPP-5661 | rel. logEC50 pcs 9 (human NPRA [1]): -0.3 log vs TPP-5661
B9: TPP-13230 (antibody)
heavy: not shown
light: B3 light

EC50, fluorescence signal of rat NPR-A cGMP reporter CHO cell line (GCaMP6/CNGA2) (rat ANP receptor (NPR-A)): 180 nM
B12: TPP-10992 (antibody, human IgG4 S228P, lambda)
heavy: not shown
light: B3 light

average rel logEC50 (human NPRA [2]): -0.5 log vs TPP-5661 | rel. logEC50 pcs 5 (human NPRA [2]): 0 log vs TPP-5661 | rel. logEC50 pcs 6 (human NPRA [2]): -0.9 log vs TPP-5661
B15: TPP-10847 (antibody, human IgG1, lambda)
heavy: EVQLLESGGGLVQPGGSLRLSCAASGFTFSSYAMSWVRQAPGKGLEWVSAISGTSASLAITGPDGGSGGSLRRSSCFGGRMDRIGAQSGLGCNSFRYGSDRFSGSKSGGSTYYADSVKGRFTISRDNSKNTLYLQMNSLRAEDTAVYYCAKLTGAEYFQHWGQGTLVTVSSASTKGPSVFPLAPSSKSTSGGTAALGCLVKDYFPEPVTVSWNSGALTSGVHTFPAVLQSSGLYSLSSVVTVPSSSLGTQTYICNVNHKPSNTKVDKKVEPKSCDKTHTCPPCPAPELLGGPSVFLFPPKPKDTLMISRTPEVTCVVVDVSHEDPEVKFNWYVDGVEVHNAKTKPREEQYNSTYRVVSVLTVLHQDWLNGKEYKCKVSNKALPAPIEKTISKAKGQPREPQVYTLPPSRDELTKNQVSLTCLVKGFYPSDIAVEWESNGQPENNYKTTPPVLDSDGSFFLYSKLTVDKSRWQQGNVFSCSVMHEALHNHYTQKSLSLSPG
light: B3 light

average rel logEC50 (human NPRA [2]): -0.8 log vs TPP-5661 | rel. logEC50* pcs (human NPRA [2]): -0.7 log vs TPP-5661 and -0.8 log vs TPP-5661
B16: TPP-13054 (antibody, human IgG1, lambda)
heavy: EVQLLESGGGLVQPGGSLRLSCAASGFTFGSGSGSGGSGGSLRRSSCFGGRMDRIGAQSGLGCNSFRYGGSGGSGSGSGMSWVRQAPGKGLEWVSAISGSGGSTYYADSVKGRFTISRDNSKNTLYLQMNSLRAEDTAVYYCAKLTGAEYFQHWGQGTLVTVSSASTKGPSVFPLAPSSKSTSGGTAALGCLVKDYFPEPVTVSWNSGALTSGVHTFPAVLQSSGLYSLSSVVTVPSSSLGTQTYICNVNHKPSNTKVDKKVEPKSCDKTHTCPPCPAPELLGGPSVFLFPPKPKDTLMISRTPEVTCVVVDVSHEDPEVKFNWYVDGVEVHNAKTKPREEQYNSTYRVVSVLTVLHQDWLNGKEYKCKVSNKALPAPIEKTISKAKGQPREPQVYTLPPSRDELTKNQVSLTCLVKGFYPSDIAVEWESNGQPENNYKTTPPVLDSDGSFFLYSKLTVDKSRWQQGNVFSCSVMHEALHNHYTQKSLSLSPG
light: B3 light
